In this experiment the target is human CD19 (human) (UniProt P15391). As to the kind of experiment: cell-based or functional assay.
Sequence of UniProt P15391 (P15391 20-556): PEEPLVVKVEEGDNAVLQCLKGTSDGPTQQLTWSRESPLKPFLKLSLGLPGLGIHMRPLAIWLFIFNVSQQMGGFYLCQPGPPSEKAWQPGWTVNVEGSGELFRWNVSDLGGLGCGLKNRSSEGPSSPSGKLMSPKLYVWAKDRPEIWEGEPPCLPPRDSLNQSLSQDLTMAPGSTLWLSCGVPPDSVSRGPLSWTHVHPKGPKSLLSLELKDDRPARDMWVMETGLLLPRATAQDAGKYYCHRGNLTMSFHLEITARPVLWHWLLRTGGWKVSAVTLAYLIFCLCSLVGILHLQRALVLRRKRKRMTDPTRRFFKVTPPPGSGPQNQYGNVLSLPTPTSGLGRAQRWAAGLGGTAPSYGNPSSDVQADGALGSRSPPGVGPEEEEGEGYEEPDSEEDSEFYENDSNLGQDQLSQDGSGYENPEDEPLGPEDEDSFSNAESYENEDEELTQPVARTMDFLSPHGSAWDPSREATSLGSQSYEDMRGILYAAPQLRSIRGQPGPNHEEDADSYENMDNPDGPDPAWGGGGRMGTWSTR

With CD19 CAR (mouse FMC63 scFv, no TF), the IFN-gamma secretion (ELISA), Hela-CD19 target cells was 8870 pg/mL.

These data come from patent US20200354451A1.
